Biological target: XPA (UniProt P23025 1-273)
Test: EMSA; XPA pre-incubated with short PAR (16-20-mer), no effect on binding; EMSA: 25 mM Hepes-KOH pH 8.3, 30 mM KCl, 0.4 mM MgCl2, 1 mM EDTA, 10% glycerol, 45 ug/mL BSA, 0.9 mM DTT; 30 min; temperature not stated. Poly(ADP-ribose) overlay binding (XPA, H1, BSA, PBM peptides) not listed: PAR is not DNA/RNA
Settings: protein: recombinant; tags: His-tag; label: biotin on the 19-mer; duplex of 19-mer and 25-mer with loop on one strand

XPA, sequence (P23025 whole entry): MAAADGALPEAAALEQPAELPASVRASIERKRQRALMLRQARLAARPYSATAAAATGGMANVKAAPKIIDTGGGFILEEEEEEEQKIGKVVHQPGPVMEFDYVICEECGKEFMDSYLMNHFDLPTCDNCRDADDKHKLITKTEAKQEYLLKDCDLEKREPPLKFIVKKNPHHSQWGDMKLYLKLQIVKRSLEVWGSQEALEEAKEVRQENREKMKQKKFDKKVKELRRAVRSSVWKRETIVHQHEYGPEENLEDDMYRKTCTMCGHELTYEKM

B1: loop-containing duplex (19-mer annealed with 25-mer) (dsDNA)
DNA 1: ACCACCCTTCGAACCACAC
DNA 2: GTGTGGTTCGCGCGCGAAGGGTGGT
B1: binds.

Reference: paper PMC4160017, “Poly(ADP‐ribose)‐mediated interplay of XPA and PARP1 leads to reciprocal regulation of protein function”
